In the supplement of paper PMC9732359:
± gives the uncertainty stated by the source.

Experiment: protein stability index of a GFP-peptide fusion (yeast GPS) (PSI 1-4); higher = more stable; sorted into four equal gates, so the index is relative within each strain
Details: doa10∆
Procedure, shortened: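 The protein stability index of a peptide was calculated by multiplying its read frequency in each gate by that gate's number and adding the products. The peptides were tiled 17-residue stretches of yeast proteins, fused downstream of GFP on a Cherry-expressing plasmid and carried in yeast as a pooled library. Mid-log cultures in leucine-free medium were sorted into four equal gates by GFP/Cherry ratio, and each gate's plasmids were PCR-amplified and Illumina-sequenced.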

First: FEFQYLTIGVKFFMKHG [SRB5]
Second: FEGTDDNEEASVKLDLQ [BRN1]
The protein stability index of the first is lower: 1.18 ± 0.046 for the first, 3.2 ± 0.17 for the second.

Compared with FEIDDEHRIRVFFDKRI [RPS6A], FEKDLMAYFDENLNRNW [BRN1] is higher in protein stability index: 1.88 ± 0.089 for the first, 2.93 ± 0.059 for the second.

FELSFTGAPPYYYNTKI [YMR129W/POM152] and FEQFEKFYEEKLWFQLS [RPN9] are within error of each other in protein stability index: 2.75 ± 0.089 for the first, 3.08 ± 0.27 for the second.

First: FERPAVKEEKEDMETQA [RPC53]
Second: FEVEMILMQQQMMARMA [SRP54]
The protein stability index of the first is higher: 2.87 ± 0.24 for the first, 1.17 ± 0.12 for the second.

First: FFGPTYYQRLRHMVDDK [RPB2]
Second: FGATTNDDKKTEPDKPA [YJL041W/NSP1]
The protein stability index of the first is lower: 1.24 ± 0.046 for the first, 1.55 ± 0.098 for the second.

FGELQFAFLNAMFFGNY [AAR2] and FGNSLSNTVNANNYSSN [YDL088C/ASM4] are within error of each other in protein stability index: 2.87 ± 0.069 for the first, 2.94 ± 0.084 for the second.

Compared with FGNSSPQLTFTHVANFM [YML103C/NUP188], FGTGQSTFGFNNSAPNN [YJL041W/NSP1] is higher in protein stability index: 2.97 ± 0.096 for the first, 3.17 ± 0.046 for the second.

Going from FHAEPSGTFYRYNAKAI [PUP2] to FHFRAPSRIFYKALRGM [RPL16A], the protein stability index falls from 2.79 ± 0.15 to 1.97 ± 0.24.

First: FIGRLPIMLRSKNCYLS [RPB2]
Second: FISAARYKPKSHLWEID [RPC37]
The protein stability index of the first is lower: 1.43 ± 0.072 for the first, 3.02 ± 0.11 for the second.

FIYGEDGMDAAHIEKQS [RPO21] and FKERQMMVSYPKIDEDD [AAR2] are within error of each other in protein stability index: 3.31 ± 0.069 for the first, 3.28 ± 0.061 for the second.

First: FKKTLRSRISSPHGLIN [SRB4]
Second: FKQKLNELLKCKDDVQL [MTW1]
The protein stability index of the first is lower: 2.09 ± 0.049 for the first, 2.93 ± 0.054 for the second.

First: FKSTESNISDEKSRISE [YMR129W/POM152]
Second: FKYRKARLEPGTAIGAI [RPO31]
The protein stability index of the first is higher: 3.3 ± 0.2 for the first, 2.73 ± 0.16 for the second.

Compared with FLESSKEIDPSQTTQLA [FAS2], FLHESSFDSIDHSWFLL [CSI1] is lower in protein stability index: 2.89 ± 0.11 for the first, 2.67 ± 0.075 for the second.

FLKKVMDTIQDKLINDV [ECM29] and FLLLAVNKYGLRADKLY [ISW2] are within error of each other in protein stability index: 3.08 ± 0.16 for the first, 3.05 ± 0.078 for the second.

Compared with FLPRKRAASIRARVKAF [RPL3], FLQGESPFSITFSVYHE [YMR129W/POM152] is higher in protein stability index: 1.16 ± 0.045 for the first, 2.4 ± 0.073 for the second.

Going from FLQPLLLVGLIKTFYWL [NUT1] to FLTPMDSIDLAPNTLTN [YML103C/NUP188], the protein stability index falls from 1.8 ± 0.051 to 1.51 ± 0.18.

Going from FLVRYACEPTAEKFVPI [SIR3] to FLYVLIPAGIYWYWWKN [QCR8], the protein stability index falls from 2.55 ± 0.23 to 1.93 ± 0.11.

First: FMLILALFVFYSPNTLG [COB]
Second: FMRNGLLEGLNEKIEKR [UBP6]
The protein stability index of the first is lower: 2.28 ± 0.074 for the first, 2.99 ± 0.29 for the second.

First: FNATVDETKGFDDNDSG [MED2]
Second: FNDSQAIVCYILFELYK [SRP72]
The protein stability index of the first is higher: 3.14 ± 0.09 for the first, 1.95 ± 0.056 for the second.

Compared with FNKEQLNKFKKAIFQFV [ECM29], FNKSAELSRIENEVENI [YCS4] is higher in protein stability index: 1.58 ± 0.15 for the first, 3.51 ± 0.17 for the second.

Going from FNTFWDEKGNEIKVGKQ [ARP9] to FNTNSSFTPSTVPNINF [YOR098C/NUP1], the protein stability index falls from 3.24 ± 0.099 to 2.48 ± 0.04.

Compared with FNYNIFMHDPSVFYNIA [SIR2], FPMKQGVLLPTRIKLLL [RPS6A] is lower in protein stability index: 1.46 ± 0.055 for the first, 1.26 ± 0.053 for the second.

First: FPMPYENEEFITFLQTL [ECM29]
Second: FPRDGKAPEAEQVLSAA [RPL13B]
The protein stability index of the first is lower: 2.34 ± 0.058 for the first, 3.3 ± 0.093 for the second.

FPSSETTSLNPIQSKVF [BRR2] and FPTTSHESLVTTLLRKK [MED8] are within error of each other in protein stability index: 2.2 ± 0.093 for the first, 2.12 ± 0.12 for the second.

First: FQETLDSTVVYPLPKFP [MED8]
Second: FQFFPKELDALQEKEQL [ISW2]
The protein stability index of the first is higher: 3.05 ± 0.05 for the first, 2.79 ± 0.066 for the second.

FQIEADFIGHNSNINTL [ASC1] and FQYGSRLPTFLKHKSIC [RPP1] are within error of each other in protein stability index: 2.1 ± 0.06 for the first, 2.24 ± 0.081 for the second.

FQYVIDESSGTSRIDEE [SMC4] and FRGNISQPKIGYGSNKK [RPL32] are within error of each other in protein stability index: 2.93 ± 0.082 for the first, 2.88 ± 0.094 for the second.

First: FRKKRKFELGRQPANTK [RPS8A]
Second: FRNPTPLLSNYASKINR [RGR1]
The protein stability index of the first is higher: 2.88 ± 0.063 for the first, 1.44 ± 0.058 for the second.

Going from FRTDMLQVADKFFRVKY [SMC3] to FSHLAGGKIINKLGNDP [BRR2], the protein stability index rises from 1.92 ± 0.068 to 2.94 ± 0.19.

Compared with FSQKEMAFNLLGLLTPE [FAS2], FSWISVVNDLVGEKLVV [SIR3] is higher in protein stability index: 2.52 ± 0.077 for the first, 3.42 ± 0.13 for the second.

FTIRGFKQKLNELLKCK [MTW1] and FTNELKAELDRYKRENQ [SEM1] are within error of each other in protein stability index: 3.05 ± 0.059 for the first, 3.09 ± 0.16 for the second.

First: FVAATTNAGYTIELAGG [FAS1]
Second: FVCLSCSHIFTSDQKNK [RPB9]
The protein stability index of the first is higher: 2.82 ± 0.063 for the first, 2.43 ± 0.082 for the second.

Going from FVHYGEIKNDFIMVKGC [RPL3] to FVRGDSKIFRFQNSKSA [RPL24A], the protein stability index rises from 2.06 ± 0.094 to 2.31 ± 0.053.

FVSRPDRTMLAPMDFAI [FAS1] and FVYNKVNETEAILYTKP [YGR119C/NUP57] are within error of each other in protein stability index: 2.68 ± 0.12 for the first, 2.76 ± 0.084 for the second.

Going from FYLMVSSLSFGPENALN [YJL039C/NUP192] to GAAANNNDQKRQQAYKT [YJL041W/NSP1], the protein stability index rises from 1.68 ± 0.048 to 3.06 ± 0.063.

GAAFKVISNLVPKLESS [YJL039C/NUP192] and GAALKDIEIVRVNKNAP [FAS2] are within error of each other in protein stability index: 2.86 ± 0.16 for the first, 3.09 ± 0.092 for the second.

First: GAIIGWTRGTGLMSANN [FAS2]
Second: GALVDRTQPWSIMPDLY [RPS0A]
The protein stability index of the first is higher: 2.89 ± 0.087 for the first, 2.71 ± 0.09 for the second.

First: GASGEERLMSRPFGVAL [PUP2]
Second: GAVSLNPSITRLEEESS [RRP4]
The protein stability index of the first is higher: 3.36 ± 0.14 for the first, 3 ± 0.2 for the second.

Going from GCYFEEKRYDDKLLDFI [CSN12] to GDKDTRADIVRNIILEA [ISW2], the protein stability index falls from 3.34 ± 0.06 to 2.1 ± 0.1.

Compared with GDLLNAEVQSLFQDGSA [RRP4], GDMTNSDAQSNLGSNVR [REC8] is higher in protein stability index: 2.18 ± 0.096 for the first, 2.92 ± 0.28 for the second.

GDPFDYKAQADTFYMNV [RPB3] and GDTIELAIIGDENPDLL [PRE8] are within error of each other in protein stability index: 3.4 ± 0.1 for the first, 3.56 ± 0.22 for the second.

GEHISAIVPGQSISGTL [SWP82] and GELVLDIEVPDVNALKF [SNF12] are within error of each other in protein stability index: 3.41 ± 0.15 for the first, 3.06 ± 0.22 for the second.

First: GETMWVPIKSSKSGRIF [RPN13]
Second: GETRMKMLNEFVKKTSE [SMC2]
The protein stability index of the first is lower: 2.3 ± 0.11 for the first, 3.28 ± 0.1 for the second.

Compared with GFDIQKSCEPVSISTSV [SIR4], GFGRKGKAKGDIPGVRF [RPS23A] is higher in protein stability index: 1.36 ± 0.091 for the first, 3.19 ± 0.14 for the second.

Going from GFSTGIGDTIADGPTMR [RPO21] to GGAKSRGVRPYKHIDAS [RPS19A], the protein stability index rises from 2.3 ± 0.13 to 3.12 ± 0.11.

Going from GGDTCSSDGALCMDSSY [POP1] to GGDWERRNRYKTYYGIH [RPN7], the protein stability index falls from 2.24 ± 0.054 to 1.24 ± 0.049.

First: GGFTNLTSQAPQTTQMF [YDL088C/ASM4]
Second: GGGHVSQVYAIRQAIAK [RPS16A]
The protein stability index of the first is higher: 3.35 ± 0.12 for the first, 2.63 ± 0.05 for the second.

First: GGIETILEHTLFKGTGF [PRP8]
Second: GGKIINKLGNDPSLNLK [BRR2]
The protein stability index of the first is higher: 3.3 ± 0.22 for the first, 2.27 ± 0.059 for the second.

GGLRPFGVSFIYAGYDD [PRE9] and GGLSGEESIKIYPLIKP [UBP6] are within error of each other in protein stability index: 2.44 ± 0.08 for the first, 2.48 ± 0.12 for the second.

Going from GGTSDMNYLLDNKINEI [CSI1] to GHDADDGYQLFHAEPSG [PUP2], the protein stability index rises from 2.85 ± 0.11 to 3.37 ± 0.19.

GIIITDQSNVQYYLSVL [BRR2] showed a protein stability index of 3.32 ± 0.2.

Same assay, conditions: pdr5∆

For FEFQYLTIGVKFFMKHG [SRB5], the protein stability index was 1.34 ± 0.047.
